Data on one molecule can be found in patent US7507790 (UNIVERSITY OF SUSSEX, dated 2009).

For the assay, the target named is T1, SAF-p2a.
T1 construct: also called self-assembling peptide; straight
T1 peptide: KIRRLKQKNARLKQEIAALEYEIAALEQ
As to the kind of experiment: co-assembly into fibres, seen by TEM (each peptide at 100 µM, 22° C. overnight). On the procedure: All samples of fibres were prepared with SAF-p1 and SAF-p2a (each at 100 μM concentration) with the designated amounts of FiSh peptides, and incubated at 22° C. overnight following the techniques described in Pandya et al., 2000 (supra).

B1: SAF-p1 (peptide)
peptide: KIAALKQKIASLKQEIDALEYENDALEQ
notes: Synthetic de novo leucine-zipper peptide made by Fmoc solid-phase synthesis; also called self-assembling peptide; straight
For the molecule B1, the binding result is “binds”.
